Measured values taken from patent US20220282255, “APTAMER FOR TGF-BETA1 AND USE OF SAME” (RIBOMIC INC., published 2022).

Key:
TGF-β1 [1] = biological target: T1, TGF-β1 (Homo sapiens, UniProt P01137 P01137:279-390); test: SPR; +; settings: tags: Recombinant Human TGF-β1, Peprotech; chain copies: 2 (homodimer, inferred)
TGF-β1 [2] = biological target: T1, TGF-β1; test: SPR; settings: tags: Recombinant Human TGF-β1, Peprotech; chain copies: 2 (homodimer, inferred)
TGF-β1 [3] = biological target: T1, TGF-β1; test: cell_activity; SBE-luciferase HEK293, 80 pM:20 nM; settings: tags: Recombinant Human TGF-β1, Peprotech; chain copies: 2 (homodimer, inferred)
Procedure: (§1) Whether the nucleic acids of SEQ ID NOs: 4-13, 17-22, 26-28 inhibit the activity of TGF-β1 was evaluated by a cell assay system that monitors Smad signaling pathway known to be activated by the stimulation of TGF-β. To be specific, photinus luciferase equipped with SBE (Smad-binding element) in the promoter region was used as a reporter (pGL4.48[luc2P/SBE/Hygro] Vector, Promega KK). Together with this SBE-induced photinus luciferase reporter plasmid, a renillaluciferase expression plasmid (pGL4.74[hRluc/TK] Vector, Promega KK) was mixed at a ratio of 20:1 as a standardized control for transfection efficiency, and transfected into HEK293 cells. The transfected HEK293 cells were re-seeded in a 96-well plate and cultured until confluent. TGF-β1 and a mixture of nucleic acid aptamers of SEQ ID NOs: 4-13, 17-22, 26-28 synthesized using T7 RNA polymerase (Y639F) were added thereto to respective final concentrations of 80 pM, 20 nM, and the cells were cultured for 3 hr. Thereafter, the expression levels of photinus luciferase and renillaluciferase were confirmed using Dual-Luciferase (registered trade mark) Reporter Assay System (Promega KK). The measurement value of photinus luciferase in each sample was corrected with the measured value of renillaluciferase, and the relative expression level of each sample was calculated by setting the ratio of photinus luciferase and renillaluciferase in a sample free of addition of TGF-β1 as 1. […] When a nucleic acid pool of 35N, 40N or 50N (SEQ ID NO: 14, 1, 23) was used as a negative control and a known TGF-β antibody (R&D, MAB1835) was used as a positive control, the same treatment and measurement were performed.

TGF-β1 [4] = biological target: T1, TGF-β1; test: SPR; receptor-binding inhibition, 10 nM:30 nM; settings: tags: Recombinant Human TGF-β1, Peprotech; chain copies: 2 (homodimer, inferred)
Procedure: Measurement of Inhibitory Activity of Aptamer Against TGF-β1-2 Whether or not the nucleic acids of SEQ ID NOs: 6, 9, 19, 21, 26 inhibit the binding of TGF-β1 to the TGF-β receptor was evaluated by surface plasmon resonance method. For the measurement, Biacore T200 manufactured by GE Healthcare was used, and the measurement was performed by the method shown below. About 1500 RU of protein A was immobilized on the surface of a sensor chip of CM4 chip by using an amine coupling kit. 20 μL of Fc fusion TRII receptor (R&D) adjusted to 30 nM was injected as an analyte at a flow rate of 20 μL/min. As a result, the Fc fusion TRII receptor was immobilized on the surface of the sensor chip of the CM4 chip via protein A. Furthermore, a mixed solution of TGF-β1 (4 nM) or TGF-β1 (10 nM), and nucleic acid (30 nM) was injected. Solution A was used as the running buffer. Based on the RU value of a sample injected with TGF-β1 alone and the RU value before injection of TGF-β1, the effect of suppressing an increase in the RU value when TGF-β1 was injected in the presence of nucleic acid was calculated as the effect of inhibiting the binding of TGF-β1 to the TRII receptor.

TGF-β1 [5] = biological target: T1, TGF-β1; test: cell_activity; 80 pM:20 nM; settings: tags: Recombinant Human TGF-β1, Peprotech; chain copies: 2 (homodimer, inferred); G4 (predicted)
Procedure: as §1
Whether or not these nucleic acids inhibit the activity of TGF-β1 was evaluated by a luciferase reporter assay similar to that in Example 4, as in Example 1.

T1 sequence (P01137 279-390, one chain of several): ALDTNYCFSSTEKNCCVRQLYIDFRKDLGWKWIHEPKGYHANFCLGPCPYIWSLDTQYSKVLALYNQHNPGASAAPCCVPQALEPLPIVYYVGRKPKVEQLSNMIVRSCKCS

B1: SEQ ID NO: 27 (ssRNA)
RNA: GGGAAUGCACUAGUGUUCAACAUUUAGCAACACAAGUCGUCCCCCACGGCAAGCAGUCCUCAAUCCUGACAAGCUUGCACGUCGAGUCAG
modifications: 2'-F all pyrimidines (U,C)
B1: binds (TGF-β1 [1]).

B2: SEQ ID NO: 8 (ssRNA)
RNA: GGGAUCCGCAUCUAGAGUACGAUGUGCUUGUGCUGAAAUUAGAUUUCGCCGACUUUCCCUAACGUCUACUGAAGCUAUCA
modifications: 2'-F all pyrimidines (U,C)
Work on B2 yielded a qualitative (TGF-β1 [2]) of no more than 10 RU.

B3: SEQ ID NO: 26 (ssRNA)
RNA: GGGAAUGCACUAGUGUUCAACCCCGACCAAUAGCAGCCCGUCUUUAACUAUUGGAAUCGCAUACGGGCCCAAGCUUGCACGUCGAGUCAG
modifications: 2'-F all pyrimidines (U,C)
In the case of B3, the activity (TGF-β1 [3]) is reported as 81 % inhibition and the binding signal (TGF-β1 [4]) is reported as 84.3 % inhibition.

B4: SEQ ID NO: 9 (ssRNA)
RNA: GGGAUCCGCAUCUAGAGUACCAUAAGGGUGGGGAGACUUGGGAGAGGGCAAAGAAGACUAAACGUCUACUGAAGCUAUCA
modifications: 2'-F all pyrimidines (U,C)
In the case of B4, the activity (TGF-β1 [3]) is reported as 80 % inhibition and the binding signal (TGF-β1 [4]) is reported as 70.2 % inhibition.

B5: SEQ ID NO: 6 (ssRNA)
RNA: GGGAUCCGCAUCUAGAGUACUUGUAUAAGUGGAGGGCGAGACUUGGGAGGGGCGAAUUGAAACGUCUACUGAAGCUAUCA
modifications: 2'-F all pyrimidines (U,C)
For B5, the activity (TGF-β1 [3]) was 98 % inhibition and the binding signal (TGF-β1 [4]) was 75 % inhibition.

B6: SEQ ID NO: 12 (ssRNA)
RNA: GGGAUCCGCAUCUAGAGUACCUAGAGGUGACUUGGGACGCGAGUUAUAAGGGAAUAGUCCAACGUCUACUGAAGCUAUCA
modifications: 2'-F all pyrimidines (U,C)
B6 gave a qualitative (TGF-β1 [2]) of no more than 10 RU.

B7: SEQ ID NO: 17 (ssRNA)
RNA: GGGAGAACUUGGAGCUGAUGUCUGGAGUCCCCAUAUAUCACGUACAGUGUAGUGCGACGUCAGUC
modifications: 2'-F all pyrimidines (U,C)
B7: binds (TGF-β1 [1]).

B8: SEQ ID NO: 13 (ssRNA)
RNA: GGGAUCCGCAUCUAGAGUACACUAGUCACAUUGCGUGUACAUUACUCUGCGCAAUCGAUAAACGUCUACUGAAGCUAUCA
modifications: 2'-F all pyrimidines (U,C)
B8: binds (TGF-β1 [1]).

B9: SEQ ID NO: 7 (ssRNA)
RNA: GGGAUCCGCAUCUAGAGUACGAAUAGUAAGGGAAUGACUCUCGGACCAAUGUAUUGCUAUAACGUCUACUGAAGCUAUCA
modifications: 2'-F all pyrimidines (U,C)
For B9, the qualitative (TGF-β1 [2]) was no more than 10 RU.

B10: SEQ ID NO: 10 (ssRNA)
RNA: GGGAUCCGCAUCUAGAGUACGAUGCAUGUUUUUAUAAAGUAUUGUUAUGUAAUGCAUCAAAACGUCUACUGAAGCUAUCA
modifications: 2'-F all pyrimidines (U,C)
B10 showed a qualitative (TGF-β1 [2]) of no more than 10 RU.

B11: SEQ ID NO: 40 (ssRNA)
RNA: GGGAGAACUUGGAGCUCCUGAAUAAGGGAGGGGAGACUUGUGGAGGGCAGAAGUGCGACGUCAGUC
modifications: 2'-F all pyrimidines (U,C)
Work on B11 yielded an activity (TGF-β1 [5]) of 100 % inhibition.
